According to patent US20220017615A1 (SHANGHAI PHARMAEXPLORER, published 2022):

Experiments:
[1] = molecular target: T1, cynomolgus CD47, on CHOK1-cCD47 stable cell line (cynomolgus); assay: FACS CHOK1-cCD47; Ab 8 nM
T1 construct: whole, on cells; check before use; also called CHOK1/cynoCD47; monkey-derived CD47
Description: (§1) The CHOK1-hCD47 stable cell lines and CHOK1-cCD47 stable cell lines were expanded to 90% confluence in a T-75 cell culture flask, the medium was exhausted, washed twice with HBSS buffer (Hanks balanced salt solution) (purchased from Invitrogen), and then treated and collected with enzyme-free cell dissociation solution (Versene solution: purchased from Life technology). The cells were washed twice with HBSS buffer. After counted, the cells were diluted with HBSS to 2×10⁶ cells per ml, added with 1% goat serum blocking solution, wherein the percentage was the mass percantage, incubated on ice for 30 minutes, and then washed twice with HBSS by centrifugation. […] The plate was washed 3 times with FACS buffer by centrifugation, added with 100 μl fixative solution [4% (v/v) Paraformaldehyde] per well to suspend the cells. 10 minutes later, it was washed twice with FACS buffer by centrifugation. The cells were suspended with 100 microliters of FACS buffer, FACS (FACS Calibur, purchased from BD) was used for detection and the results were analyzed.

[2] = molecular target: T2, biotin-labeled CD47 extracellular domain protein (CD47-ECD) (UniProt Q08722 19-139, limits assumed, biotin-labeled (sites not given)); assay: blocking ELISA, biotin-CD47-ECD on coated SIRPα-hFc; Ab 8 nM
T2 construct: extracellular domain; also called CD47 protein

[3] = molecular target: T3, His-tagged CD47 recombinant protein, CD47-His (human, UniProt Q08722 19-141, limits assumed); assay: ELISA on coated CD47-His; Ab 0.533 nM
T3 construct: it is not restated for CD47-His; also called human CD47-His protein; antigen CD47-His; not shown: His tag

[4] = molecular target: T1, cynomolgus CD47, on CHOK1-cCD47 stable …; assay: FACS CHOK1-cCD47; Ab 1.6 nM
Description: as §1

[5] = molecular target: T1, cynomolgus CD47, on CHOK1-cCD47 stable …; assay: FACS CHOK1-cCD47; Ab 0.32 nM
Description: as §1

[6] = molecular target: T3, His-tagged CD47 recombinant protein, …; assay: ELISA on coated CD47-His; Ab 0.004 nM
Description: (§2) The plate was sealed with plastic film and incubated at 4° C. overnight. The plate was washed twice with plate washing solution [PBS+0.01% (v/v) Tween20] the next day, and blocking solution [PBS+0.01% (v/v) Tween20 +1% (w/w) BSA] was added to block it at room temperature for 2 hours. […] After incubation at 37° C. for 2 hours, the plates were washed three times with plate washing solution [PBS+0.01% (v/v) Tween 20]. HRP (horseradish peroxidase) labeled secondary antibody (purchased from Sigma) was added, incubated at 37° C. for 2 hours, and then washed three times with plate washing solution [PBS+0.01% (v/v) Tween 20]. 1000 of TMB substrate was added to each well. After incubated at room temperature for 30 minutes, the plate was added with 100 μl of stop solution (1.0N HCl) to each well.

[7] = molecular target: T4, human CD47, full length, on transfected cells (human, UniProt Q08722 19-323); assay: FACS CHOK1-hCD47; Ab 0.32 nM
T4 construct: whole, on cells; also called CHOK1-hCD47

[8] = molecular target: T3, His-tagged CD47 recombinant protein, …; assay: ELISA on coated CD47-His; Ab 13.333 nM
Description: as §2

[9] = molecular target: T4, human CD47, full length, on transfected …; assay: FACS CHOK1-hCD47; Ab 8 nM
Description: as §1

[10] = molecular target: T3, His-tagged CD47 recombinant protein, …; assay: ELISA on coated CD47-His; Ab 0.021 nM
Description: as §2

[11] = molecular target: T3, His-tagged CD47 recombinant protein, …; assay: ELISA on coated CD47-His; Ab 2.667 nM
Description: as §2

[12] = molecular target: T3, His-tagged CD47 recombinant protein, …; assay: ELISA on coated CD47-His; Ab 66.667 nM
Description: as §2

[13] = molecular target: T2, biotin-labeled CD47 extracellular …; assay: blocking ELISA, biotin-CD47-ECD on coated SIRPα-hFc; Ab 0.064 nM
Description: (§3) The plate was sealed with plastic film and incubated at 4° C. overnight. The plate was washed twice with plate washing solution [PBS+0.01% (v/v) Tween20] on the next day, and blocking solution [PBS+0.01% (v/v) Tween20 +1% (w/w) BSA] was added to block it at room temperature for 2 hours. […] After incubation at 37° C. for 2 hours, the plate was washed three times with the plate washing solution [PBS+0.01% (v/v) Tween 20]. HRP (horseradish peroxidase) labeled avidin diluent (purchased from Sigma) was added as 100 microliters per well, and after the plate was incubated for 2 hours at 37° C., it was washed 3 times with washing solution [PBS+0.01% (v/v) Tween 20]. 100 μl of TMB substrate was added to each well. After incubated at room temperature for 30 minutes, the plate was added with 100 μl of stop solution (1.0N HCl) to each well.

[14] = molecular target: T3, His-tagged CD47 recombinant protein, …; assay: ELISA on coated CD47-His; Ab 0.107 nM
Description: as §2

[15] = molecular target: T4, human CD47, full length, on transfected …; assay: FACS CHOK1-hCD47; Ab 0 nM (background)
Description: as §1

[16] = molecular target: T1, cynomolgus CD47, on CHOK1-cCD47 stable …; assay: FACS CHOK1-cCD47; Ab 0.0128 nM
[17] = molecular target: T1, cynomolgus CD47, on CHOK1-cCD47 stable …; assay: FACS CHOK1-cCD47; Ab 200 nM
Description: as §1

[18] = molecular target: T1, cynomolgus CD47, on CHOK1-cCD47 stable …; assay: FACS CHOK1-cCD47; Ab 40 nM
[19] = molecular target: T1, cynomolgus CD47, on CHOK1-cCD47 stable …; assay: FACS CHOK1-cCD47; Ab 0.064 nM
[20] = molecular target: T2, biotin-labeled CD47 extracellular …; assay: blocking ELISA, biotin-CD47-ECD on coated SIRPα-hFc; Ab 0.0128 nM
Description: as §3

[21] = molecular target: T2, biotin-labeled CD47 extracellular …; assay: blocking ELISA, biotin-CD47-ECD on coated SIRPα-hFc; Ab 0 nM
Description: as §3

[22] = molecular target: T4, human CD47, full length, on transfected …; assay: FACS CHOK1-hCD47; Ab 0.0128 nM
Description: as §1

[23] = molecular target: T1, cynomolgus CD47, on CHOK1-cCD47 stable …; assay: FACS CHOK1-cCD47; Ab 0 nM (background)
Description: as §1

[24] = molecular target: T2, biotin-labeled CD47 extracellular …; assay: blocking ELISA, biotin-CD47-ECD on coated SIRPα-hFc; Ab 0.32 nM
Description: as §3

[25] = molecular target: T2, biotin-labeled CD47 extracellular …; assay: blocking ELISA, biotin-CD47-ECD on coated SIRPα-hFc; Ab 200 nM
Description: as §3

[26] = molecular target: T4, human CD47, full length, on transfected …; assay: FACS CHOK1-hCD47; Ab 0.064 nM
Description: as §1

[27] = molecular target: T2, biotin-labeled CD47 extracellular …; assay: blocking ELISA, biotin-CD47-ECD on coated SIRPα-hFc; Ab 40 nM
Description: as §3

[28] = molecular target: T2, biotin-labeled CD47 extracellular …; assay: blocking ELISA, biotin-CD47-ECD on coated SIRPα-hFc; Ab 1.6 nM
Description: as §3

[29] = molecular target: T4, human CD47, full length, on transfected …; assay: FACS CHOK1-hCD47; Ab 1.6 nM
Description: as §1

[30] = molecular target: T3, His-tagged CD47 recombinant protein, …; assay: ELISA on coated CD47-His; Ab 0 nM (background)
[31] = molecular target: T4, human CD47, full length, on transfected …; assay: FACS CHOK1-hCD47; Ab 40 nM
[32] = molecular target: T4, human CD47, full length, on transfected …; assay: FACS CHOK1-hCD47; Ab 200 nM
Description: as §1

B1: 51E2F11 (antibody, V domains shown)
VH: EVQLQQSGAELVKPGASVKLSCTASGFNIKDHYIHWMNQRTEQGLEWIGRIDPDDGETRYAPKFRGKATLTADTSSNTAYLQFSSLTSEDTAVYHCTRATTITRDWYFDVWGTGTTVTVSS
VL: DIVMTQSQKFMSTSVGDRVSITCKASQNVRTSVAWYQQKPGQSPKALIYLASNRHTGIPDRFTGSGSGTDFTLTIRNVQSEDLADYFCLQHWDYPLTFGAGTKLELK
notes: Murine hybridoma antibody purified on protein G
B1 was tested, and the mean fluorescence intensity [1] was 10600, the “OD450 nm of CD47 bound to SIRPα” value [2] was 0.1 and the OD450 nm [3] was 2.95. The mean fluorescence intensity [4] was 7190, the mean fluorescence intensity [5] was 2880 and the OD450 nm [6] was 0.16. The mean fluorescence intensity [7] was 2000, the OD450 nm [8] was 2.97 and the mean fluorescence intensity [9] was 12700. The OD450 nm [10] was 0.53, the OD450 nm [11] was 3 and the OD450 nm [12] was 2.95. For the same binder, the “OD450 nm of CD47 bound to SIRPα” value [13] was 2.77, the OD450 nm [14] was 1.83 and the mean fluorescence intensity [15] was 22.6. The mean fluorescence intensity [16] was 245, the mean fluorescence intensity [17] was 9460 and the mean fluorescence intensity [18] was 13300. The mean fluorescence intensity [19] was 288, the “OD450 nm of CD47 bound to SIRPα” value [20] was 2.94 and the “OD450 nm of CD47 bound to SIRPα” value [21] was 2.95. For the same binder, the mean fluorescence intensity [22] was 174, the mean fluorescence intensity [23] was 72.4 and the “OD450 nm of CD47 bound to SIRPα” value [24] was 1.57. The “OD450 nm of CD47 bound to SIRPα” value [25] was 0.07, the mean fluorescence intensity [26] was 541 and the “OD450 nm of CD47 bound to SIRPα” value [27] was 0.08. For the same binder, the “OD450 nm of CD47 bound to SIRPα” value [28] was 0.32, the mean fluorescence intensity [29] was 6460 and the OD450 nm [30] was 0.05. For the same binder, the mean fluorescence intensity [31] was 15900 and the mean fluorescence intensity [32] was 14600.

B2: 20H4G5 (antibody, V domains shown)
VH: QVQLQQPGAELVRPGSSVRLSCVTSGYTFTSHWMHWVKQGPIKGLEWIGNIDPSDSETHYNQKFKDKATLTVDKSSSTAYMQLSRLTSDDSAVYYCARWRHLGIGAMDYWGQGTSVIVSS
VL: DVQITQSPSYLAASPGETITINCRASKNISKFLAWYQAKPGKSNNLLIYSGSTLQSGIPSRFSGSGSGTDFTLTISRLEPEDFAMYYCQQHNEYPWTFGGGTKLEIK
notes: as for B1
For B2, the mean fluorescence intensity [1] was 16400, the “OD450 nm of CD47 bound to SIRPα” value [2] was 0.08 and the OD450 nm [3] was 3.02. The mean fluorescence intensity [4] was 9450, the mean fluorescence intensity [5] was 3310 and the OD450 nm [6] was 0.31. It also gave a mean fluorescence intensity [7] of 2980, an OD450 nm [8] of 2.94 and a mean fluorescence intensity [9] of 8470. The OD450 nm [10] was 1.15, the OD450 nm [11] was 3.01 and the OD450 nm [12] was 2.9. For the same binder, the “OD450 nm of CD47 bound to SIRPα” value [13] was 2.29, the OD450 nm [14] was 2.61 and the mean fluorescence intensity [15] was 23.1. For the same binder, the mean fluorescence intensity [16] was 343, the mean fluorescence intensity [17] was 16500 and the mean fluorescence intensity [18] was 13400. The mean fluorescence intensity [19] was 998, the “OD450 nm of CD47 bound to SIRPα” value [20] was 2.81 and the “OD450 nm of CD47 bound to SIRPα” value [21] was 2.9. For the same binder, the mean fluorescence intensity [22] was 233, the mean fluorescence intensity [23] was 81.2 and the “OD450 nm of CD47 bound to SIRPα” value [24] was 0.68. The “OD450 nm of CD47 bound to SIRPα” value [25] was 0.07, the mean fluorescence intensity [26] was 759 and the “OD450 nm of CD47 bound to SIRPα” value [27] was 0.07. For the same binder, the “OD450 nm of CD47 bound to SIRPα” value [28] was 0.16, the mean fluorescence intensity [29] was 6160 and the OD450 nm [30] was 0.05. It also gave a mean fluorescence intensity [31] of 9520 and a mean fluorescence intensity [32] of 6550.
